The values below come from publication PMC10514136, “Peptide-conjugated antimiRs improve myotonic dystrophy type 1 phenotypes by promoting endogenous MBNL1 expression” (Molecular Therapy. Nucleic Acids, 2023).

One series relates to Nfix exon 7. The series is described as follows: Alternative splicing of Nfix exon 7 in muscle by RT-PCR (PSI, splice recovery). It counts as in vivo, mouse. The note with it: HSALR mice, individual mice; for Percentage spliced-in (PSI) Nfix Gast: 9.2 mg/kg (mean) i.v. x3, day 45, gastrocnemius; for Percentage spliced-in (PSI) Nfix Quads: 9.2 mg/kg (mean) i.v. x3, day 45, quadriceps. On the procedure:
(§1) Total RNA from murine gastrocnemius and quadriceps muscle was isolated using the miRNeasy Mini Kit (QIAGEN, Hilden, Germany) according to the manufacturer’s instructions. One microgram of RNA was digested with DNase I (Invitrogen, Carlsbad, CA) and reverse transcribed with SuperScript II (Invitrogen) using random hexanucleotides. For subsequent PCR reactions, 20 ng of cDNA was used with GoTaq polymerase (Promega). Specific primers were used to analyze the alternative splicing of Nfix, Atp2a1, and Clcn1 in mouse samples (both muscles). Gapdh levels established the endogenous reference levels using 0.2 ng of cDNA. PCR products were separated on a 2% agarose gel and quantified using ImageJ software (NIH, Bethesda, MD). PSR index was defined as value%SI minus X¯%DSI , divided by X¯%DSI minus X¯%HSI (SI, splicing inclusion of each sample; DSI, disease splicing inclusion; HSI, healthy splicing inclusion). Overall, PSR indicates the amount in both muscles analyzed. Primer sequences and exons analyzed are available in Cerro-Herreros et al.[20] In the case of off-targets, interleukins, and muscle regeneration marker Mstn-1, primers sequences are available in Table S5. We used 1 ng of mouse tissue cDNA as a template for multiplex qPCR using the QuantiFast Probe PCR Kit reagent. Commercial TaqMan probes (QIAGEN) were used for mouse (Mbnl1 and Mbnl2; FAM-labeled probes) and reference (GAPDH; MAX-labeled probe) genes. Results were normalized to Gapdh endogenous gene expression.
(§2) We used homozygous transgenic HSA^LR (line 20 b) mice,[90] which were kindly provided by Dr Thornton (Rochester, NY) and were housed and bred in our animal facility. Experimental groups were FVB as healthy control and HSA^LR treated with a scrambled ON (SC) and PBS as negative controls, and HSA^LR mice treated with all six experimental CPP-PMOs. The mice were randomly allocated to the different treatments as follows: in each cage, each mouse was ear-marked as it was taken out, and each mouse was then assigned to a different treatment. […] Mice were sacrificed 45 days after the first injection and the tissues of interest were frozen in liquid nitrogen for the molecular and histological assays. All the mice used in this study ranged from 5 to 5.5 months of age and all were males.

The next series relates to DM1 cells. In words: Cell proliferation assay (CellTiter 96 AQueous), cell growth inhibition after lipofection. The class given is cell-based, human. How it is done: Cells seeded at 10^5 cells/mL in 96-well plates were transfected 24 h later with antimiRs as described previously.[20] After 96 h, cell proliferation was measured using the CellTiter 96 AQueous Non-Radioactive Cell Proliferation Assay (Promega, Madison, WI). Absorbance levels were determined using an Infinite M200 PRO plate reader (Tecan, Männedorf, Switzerland) and the TC50 was calculated using non-linear least-squares regression.

Series [1] is described as follows: ELISA determination of antimiR conjugate concentrations in tissues. The class given is in vivo, mouse. As to conditions: HSALR mice, 9.2 mg/kg (mean) i.v. x3, day 45, hybridization ELISA, background subtracted, individual mice. How it is done:
Custom ELISA-based measurements of antimiR conjugate concentrations in brain, kidney, liver, heart, gastrocnemius, and quadriceps from treated HSA^LR mice were performed as described in Burki et al.,[89] using the following phosphorothioate probes: for miR-218 (5′ → 3′) [DIG] T∗T∗G∗T∗G∗C∗T∗TGATCTA∗A∗C∗C∗A∗T∗G∗T [BIO]; for miR-23b (5′ → 3′) [BIO] A∗T∗C∗A∗C∗A∗T∗TGCCAGG∗G∗A∗T∗T∗A∗C∗C [DiG] double-labeled with digoxigenin (DIG) and biotin (BIO). In all cases, a control sample was used to subtract the background (HSA^LR treated with PBS for 9b2 and 9b2-KC ONs; HSA^LR treated with Scramble for 6aKC ONs).
Mouse handling and experimental procedures followed the European law regarding laboratory animal care and experimentation (2003/65/C.E.) and were approved by Conselleria de Agricultura, Generalitat Valenciana (reference no. A1539961490857). We used homozygous transgenic HSA^LR (line 20 b) mice,[90] which were kindly provided by Dr Thornton (Rochester, NY) and were housed and bred in our animal facility. Experimental groups were FVB as healthy control and HSA^LR treated with a scrambled ON (SC) and PBS as negative controls, and HSA^LR mice treated with all six experimental CPP-PMOs. The mice were randomly allocated to the different treatments as follows: in each cage, each mouse was ear-marked as it was taken out, and each mouse was then assigned to a different treatment. Animals were injected biweekly intravenously with 150 μL of 1× PBS vehicle (controls; HSA^LR n = 7 and FVB n = 6) or 150 μL of a solution 1.875 mg/mL of the test CPP-PMOs corresponding to an average dose of 9.2 mg/kg (HSA^LR mice: SC n = 5, 9b2-218 n = 5, 9b2-23b n = 5, […] n = 5, […] n = 5, 6aKC-218 n = 5, and 6aKC-23b n = 5; see Table S6 for precise dosing). Mice were sacrificed 45 days after the first injection and the tissues of interest were frozen in liquid nitrogen for the molecular and histological assays. All the mice used in this study ranged from 5 to 5.5 months of age and all were males.
A general note: In an ELISA, binding on a coated surface is turned into a signal by an enzyme label.

Another series deals with HSALR mice. In words: Serum biochemistry profile. It counts as in vivo, mouse. From the text: Mouse handling and experimental procedures followed the European law regarding laboratory animal care and experimentation (2003/65/C.E.) and were approved by Conselleria de Agricultura, […] (reference no. A1539961490857). We used homozygous transgenic HSA^LR (line 20 b) mice,[90] which were kindly provided by Dr Thornton (Rochester, NY) and were housed and bred in our animal facility. […] The mice were randomly allocated to the different treatments as follows: in each cage, each mouse was ear-marked as it was taken out, and each mouse was then assigned to a different treatment. Animals were injected biweekly intravenously with 150 μL of 1× PBS vehicle (controls; […] Mice were sacrificed 45 days after the first injection and the tissues of interest were frozen in liquid nitrogen for the molecular and histological assays. All the mice used in this study ranged from 5 to 5.5 months of age and all were males. At 45 days post treatment, animals were sacrificed, and blood was collected by cardiac puncture exsanguination with K3-EDTA (Sarstedt, Nümbrecht, Germany). The samples were analyzed by Laboratorios Montoro Botella (Valencia, Spain).

For another series, the system named is Clcn1 exon 7a. The series is described as follows: Alternative splicing of Clcn1 exon 7a in muscle by RT-PCR (PSI, splice recovery). The class given is in vivo, mouse. The note with it: HSALR mice, individual mice; for Percentage spliced-in (PSI) Clcn1 Gast: 9.2 mg/kg (mean) i.v. x3, day 45, gastrocnemius; for Percentage spliced-in (PSI) Clcn1 Quads: 9.2 mg/kg (mean) i.v. x3, day 45, quadriceps. On the procedure:
as §1, §2

Where [2] appears, read: HSALR mice, 9.2 mg/kg (mean) i.v. x3, day 45, serum, mean ± sd, n = 5.

Values joined by “and” are separate entries in the source; they are usually repeats but may differ in a detail not shown here. Equal entries are not always repeated. Where two headings read alike, the source gives them in different places.

For the substance “6aKC-23b (antisense GGUAAUCCCUGGCAAUGUGAU; all phosphorodiamidate morpholino (PMO), T or U not given here; Pip6aKC peptide conjugated)”, in the series on Nfix exon 7, the “Percentage spliced-in (PSI) Nfix Gast” value was 63.59% and 47.55% and 61.79% and 62.43% and 69.22%; the “Percentage spliced-in (PSI) Nfix Quads” value is 56.32% and 62.29% and 64.55% and 58.42% and 53.11%. In addition, the “TC50” value in the series with DM1 cells came out at 1711.00 nM. In series [1] (9.2 mg/kg), the “CPP-PMO concentration (pM), Brain” value was 0.83 pM and 9.49 pM and 11.43 pM and 25.59 pM and 4.02 pM; the “CPP-PMO concentration (pM), Gastrocnemius” value is 93.86 pM and 1846.67 pM and 1209.72 pM and 472.26 pM and 199.58 pM; the “CPP-PMO concentration (pM), Heart” value is 1789.14 pM and 954.01 pM and 1508.23 pM and 1701.45 pM; the “CPP-PMO concentration (pM), Kidney” value is 174345.23 pM and 110334.18 pM and 239168.85 pM and 16740.44 pM and 230939.23 pM. For the same substance, in series [1] (9.2 mg/kg), the “CPP-PMO concentration (pM), Liver” value was 4615.98 pM and 9209.58 pM and 10333.80 pM and 76.40 pM and 8623.71 pM; the “CPP-PMO concentration (pM), Quadriceps” value is 72.30 pM and 93.71 pM and 165.91 pM and 28.58 pM and 1.72 pM. Besides, in the series with HSALR mice (mouse, in vivo, iv, 9.2 mg/kg), the ALT was 57,8 ± 13,349 U/L, the AST is on record as 143,60 ± 41,464 U/L, the “Alkaline Phosphatase” value is 58,40 ± 6,693 U/L and the Amylase is given as 4232,6 ± 2590,822 U/L. Also, in the series with HSALR mice (mouse, in vivo, iv, 9.2 mg/kg), the “Bile Acids” value is 0,675 ± 0,754 µmol/L, the Bilirubin is 0,11 ± 0,083 mg/dL, the C.P.K. is listed as 831,8 ± 357,821 U/L and the Creatinine is 0,20 ± 0 mg/dL. For the same substance, in the series on HSALR mice (mouse, in vivo, iv, 9.2 mg/kg), the Glucose is 121,2 ± 27,607 mg/dL, the L.D.H. is reported as 2574 ± 453,119 U/L, the Total cholesterol was 227,40 ± 11,014 mg/dL and the Triglycerides is 235,4 ± 40,209 mg/dL. In the series with Clcn1 exon 7a, the “Percentage spliced-in (PSI) Clcn1 Gast” value is 15.22% and 18.35% and 23.17% and 29.03% and 31.54%; the “Percentage spliced-in (PSI) Clcn1 Quads” value was 24.44% and 30.63% and 35.11% and 37.69% and 28.33%.

Take “6aKC-218 (antisense ACAUGGUUAGAUCAAGCACAA; all phosphorodiamidate morpholino (PMO), T or U not given here; Pip6aKC peptide conjugated)”: in the series with Nfix exon 7, the “Percentage spliced-in (PSI) Nfix Gast” value was 68.36% and 70.85% and 73.58% and 51.68% and 74.79%; the “Percentage spliced-in (PSI) Nfix Quads” value is 52.44% and 62.29% and 52.77% and 89.96% and 66.72%. Besides, in the series on DM1 cells, the “TC50” value amounted to 1809.00 nM. Besides, the “CPP-PMO concentration (pM), Brain” value in series [1] worked out at 5.54 pM. In series [1] (9.2 mg/kg), the “CPP-PMO concentration (pM), Gastrocnemius” value was 3105.34 pM and 4126.64 pM; the “CPP-PMO concentration (pM), Heart” value is 220.63 pM and 8031.17 pM and 1672.26 pM; the “CPP-PMO concentration (pM), Kidney” value is 807303.00 pM and 163863.50 pM and 282189.80 pM and 288519.00 pM and 763252.10 pM; the “CPP-PMO concentration (pM), Liver” value is 11820.61 pM and 1738.96 pM and 6547.20 pM and 6702.77 pM and 6452.86 pM. Also, the “CPP-PMO concentration (pM), Quadriceps” value in series [1] (9.2 mg/kg) is 56.37 pM and 3449.73 pM and 180.55 pM. Moreover, in the series with HSALR mice (mouse, in vivo, iv, 9.2 mg/kg), the ALT was 60,20 ± 16,208 U/L, the AST is given as 138,4 ± 57,665 U/L, the “Alkaline Phosphatase” value is recorded as 58 ± 4,123 U/L and the Amylase was 2999,4 ± 120,286 U/L. In the series on HSALR mice (mouse, in vivo, iv, 9.2 mg/kg), the “Bile Acids” value is given as 2,38 ± 3,406 µmol/L, the Bilirubin is 0,096 ± 0,03 mg/dL, the C.P.K. is listed as 818 ± 604,389 U/L and the Creatinine is reported as 0,20 ± 0 mg/dL. For the same substance, in the series with HSALR mice (mouse, in vivo, iv, 9.2 mg/kg), the Glucose is listed as 107,2 ± 31,292 mg/dL, the L.D.H. was 2137,60 ± 340,071 U/L, the Total cholesterol is 232 ± 12,124 mg/dL and the Triglycerides is listed as 273,4 ± 51,335 mg/dL. In the series with Clcn1 exon 7a, the “Percentage spliced-in (PSI) Clcn1 Gast” value was 28.37% and 38.26% and 18.26% and 24.01% and 28.56%; the “Percentage spliced-in (PSI) Clcn1 Quads” value is 33.68% and 24.84% and 25.74% and 41.25% and 27.67%.

For “TCTTACCTCAGTTACAATTTA-Pip9b2 [Scramble, reference compound]”, in the series with Nfix exon 7, the “Percentage spliced-in (PSI) Nfix Gast” value is 62.98% and 52.74% and 55.70% and 81.00% and 76.46%; the “Percentage spliced-in (PSI) Nfix Quads” value was 60.30% and 80.52% and 66.59% and 72.38% and 72.49%. Further, in the series on DM1 cells (toxic concentration 50, DM1 cells transfected 24 h after seeding, read after 96 h, absorbance, non-linear least-squares regression), the “TC50” value amounted to 217.00 nM. In the series with HSALR mice (setting [2]), the ALT is 47,6 ± 11,327 U/L, the AST is given as 129,60 ± 33,687 U/L, the “Alkaline Phosphatase” value is 61 ± 6,557 U/L and the Amylase is 3234,2 ± 476,489 U/L. In addition, in the series on HSALR mice (setting [2]), the “Bile Acids” value is recorded as 3,38 ± 5,188 µmol/L, the Bilirubin was 0,118 ± 0,026 mg/dL, the C.P.K. is 763 ± 244,663 U/L and the Creatinine is given as 0,20 ± 0 mg/dL. For the same substance, in the series on HSALR mice (setting [2]), the Glucose is listed as 113,60 ± 35,352 mg/dL, the L.D.H. is 2438,8 ± 183,91 U/L, the Total cholesterol is reported as 224,40 ± 11,216 mg/dL and the Triglycerides was 259,8 ± 56,287 mg/dL. In the series with Clcn1 exon 7a, the “Percentage spliced-in (PSI) Clcn1 Gast” value was 12.37% and 14.67% and 42.81% and 26.86% and 36.37%; the “Percentage spliced-in (PSI) Clcn1 Quads” value is 28.91% and 16.71% and 28.33% and 34.05% and 38.65%.
